Experimental findings from PMC9055814 are described below.

In the data set the target is SlGAMYB2-GST (Solanum lycopersicum, UniProt A0A3Q7H2U6 1-504). The experiment in a line: EMSA.

B1: SlGA3ox1 probe P5 (dsDNA)
DNA 1: TTAACAAAGACAAATTAGTTGATTGGTTAAAGACAATCAATATGT
DNA 2: ACATATTGATTGTCTTTAACCAATCAACTAATTTGTCTTTGTTAA
B1: the binding result is on record as “no binding”.

B2: SlGA3ox2 probe P2 (dsDNA)
DNA 1: CAATTATTTGTCAATATTTGGTTAAATACTTGTTTAATAGTATAC
DNA 2: GTATACTATTAAACAAGTATTTAACCAAATATTGACAAATAATTG
As for B2, the binding result is on record as “binds”.

B3: SlGA3ox2 probe P4 (dsDNA)
DNA 1: CTATAATTGAATTGAATTCAGTTAACTGTCGAAATTGGAATGGTA
DNA 2: TACCATTCCAATTTCGACAGTTAACTGAATTCAATTCAATTATAG
As to B3, the binding result is “no binding”.

B4: SlGA3ox2 probe P3 (dsDNA)
DNA 1: CCCATACAACTTTGCGATGTTAATGGTTATAACTATAAAGGGAGA
DNA 2: TCTCCCTTTATAGTTATAACCATTAACATCGCAAAGTTGTATGGG
Turning to B4, the binding result is given as “binds”.

B5: SlGA3ox2 probe P1 (dsDNA)
DNA 1: GCACTTAAGATCATAATTAATGATTTCAGTTACCGCAATAAAATG
DNA 2: CATTTTATTGCGGTAACTGAAATCATTAATTATGATCTTAAGTGC
Consider B5, for which the binding result is “no binding”.
